± gives the uncertainty stated by the source.
Assay: self-splicing fitness, log relative to wild type (ln ratio); higher = more splicing; Tetrahymena group I intron in knt gene, E. coli kanamycin selection, DiMSum; sequences stand for … in CUCUCU…GGAGGGAAAAGUUAUCAGGCAUGCACCUGGUAGCUAGUCUUUAAACCAAUAGAUUGCAUCGGUUUAAAAGGCAAGACCGUCAAAUUGCGGGAAAGGGGUCAACAGCCGUUCAGUACCAAGUCUCAGGGGAAACUUUGAGAUGGCCUUGCAAAGGGUAUGGUAAUAAGCUGACGGACAUGGUCCUAACCACGCAGCCAAGUCCUAAGUCAACAGAUCUUCUGUUGAUAUGGAUGCAGUUCACAGACUAAAUGUCGGUCGGGGAAGAUGUAUUCUUCUCAUAAGAUAUAGUCGGACCUCUCCUUAAUGGGAGCUAGCGGAUGAAGUGAUGCAACACUGGAGCCGCUGGGAACUAAUUUGUAUGCGAAAGUAUAUUGAUUAGUUUUGGAGUACUCGUGGUCG
Outline: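 Colonies from six replicate transformations of E. coli BL21(DE3) were pooled and amplicon-sequenced on an Illumina HiSeq 2500. The library placed an intron with all eight P1ex-region nucleotides randomised inside the knt kanamycin-resistance gene on pET-22b(+), and cells grew overnight at 37°C or 30°C on LB agar with or without 25 μg/mL kanamycin (plus 100 μg/mL carbenicillin, 50 μM IPTG, 0.2% rhamnose). Fitness is the DiMSum error-weighted combination of wild-type-normalised replicate fold changes, kanamycin versus none.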

Sequence | self-splicing fitness (ln) (30 °C) | self-splicing fitness (ln) (37 °C)
GCUAAGCAAUAUUACGCUCG | -0.473 ± 0.094 | -0.832 ± 0.13
ACAUAGCAAUAUUACGGUAC | -4.24 ± 0.33 | -2.51 ± 0.27
GGACAGCAAUAUUACGUCAC | -2.41 ± 0.17 | -1.56 ± 0.2
UAAGAGCAAUAUUACGCAGA | -2.62 ± 0.18 | -2.24 ± 0.23
UUCAAGCAAUAUUACGGCAC | -2.66 ± 0.4 | -1.11 ± 0.33
AAGAAGCAAUAUUACGCCGG | -2.02 ± 0.24 | -1.81 ± 0.18
AUGGAGCAAUAUUACGUAUU | -3.29 ± 0.24 | -2.21 ± 0.16
UCGGAGCAAUAUUACGUAAA | -3.16 ± 0.31 | -1.55 ± 0.29
GCCCAGCAAUAUUACGAAUU | -2.18 ± 0.077 | -0.934 ± 0.094
CCGGAGCAAUAUUACGCCAG | -3.49 ± 0.2 | -2.31 ± 0.24
UAACAGCAAUAUUACGGCCG | -0.568 ± 0.078 | 0.226 ± 0.12
ACCGAGCAAUAUUACGGAAC | -3.03 ± 0.29 | -1.63 ± 0.21
UGGCAGCAAUAUUACGGACG | 0.0917 ± 0.19 | 0.916 ± 0.24
AGAGAGCAAUAUUACGACGG | -3.4 ± 0.28 | 
UGUUAGCAAUAUUACGUCGC | -3.73 ± 0.18 | -2.23 ± 0.18
GCGAAGCAAUAUUACGUAGA | -3.57 ± 0.44 | -1.75 ± 0.37
CCACAGCAAUAUUACGGCUC | -3.39 ± 0.18 | -1.79 ± 0.16
CUAUAGCAAUAUUACGACAU | -4.157 ± 0.031 | -3.08 ± 0.045
UUAGAGCAAUAUUACGUUUA | -2.01 ± 0.13 | -0.913 ± 0.15
UUCAAGCAAUAUUACGGUAU | -2.84 ± 0.11 | -1.64 ± 0.11
CUGUAGCAAUAUUACGGGAU | -3.16 ± 0.26 | -2.28 ± 0.23
AGCUAGCAAUAUUACGAGUU | -2.58 ± 0.16 | -2.45 ± 0.22
CUGAAGCAAUAUUACGGGGG | -1.46 ± 0.14 | -1.28 ± 0.18
GGGGAGCAAUAUUACGCCUG | -2.33 ± 0.15 | -0.491 ± 0.13
GGGCAGCAAUAUUACGUUCA | -0.593 ± 0.075 | -0.158 ± 0.12

Sequence | self-splicing fitness (ln) (30 °C) | self-splicing fitness (ln) (37 °C)
GGGGAGCAAUAUUACGGUGG | -3.04 ± 0.25 | -2.67 ± 0.24
AGAGAGCAAUAUUACGCCGC | -3.9 ± 0.3 | -1.49 ± 0.25
UCAAAGCAAUAUUACGGUUU | -3.06 ± 0.21 | -3 ± 0.27
AACCAGCAAUAUUACGUAUU | -1.79 ± 0.072 | -0.754 ± 0.08
CCUUAGCAAUAUUACGAUAC | -1.67 ± 0.44 | 
GAACAGCAAUAUUACGGCAC | -0.296 ± 0.083 | -0.0202 ± 0.1
GAGAAGCAAUAUUACGGAGA | -3.8 ± 0.24 | -2.04 ± 0.28
UAAUAGCAAUAUUACGCCAC | -1.32 ± 0.19 | -1.89 ± 0.44
AGUCAGCAAUAUUACGGAAA | -2.78 ± 0.19 | -2 ± 0.15
GCGUAGCAAUAUUACGCCAG | -3.15 ± 0.41 | -2.32 ± 0.37
AUACAGCAAUAUUACGCUUU | -3.04 ± 0.18 | -1.64 ± 0.15
GUGAAGCAAUAUUACGGCUC | -0.996 ± 0.091 | -0.646 ± 0.099
UCGCAGCAAUAUUACGCGUU | -4.2 ± 0.27 | -2.38 ± 0.13
AGCGAGCAAUAUUACGUCUG | -2.03 ± 0.11 | -1.8 ± 0.14
CAGUAGCAAUAUUACGCAAA |  | -3.33 ± 0.43
GUCAAGCAAUAUUACGCAAA | -1.99 ± 0.15 | -1.46 ± 0.16
UAAUAGCAAUAUUACGGAUU | -2.69 ± 0.36 | -1.02 ± 0.28
AGUCAGCAAUAUUACGAUUC | -3.27 ± 0.14 | -1.05 ± 0.1
GAACAGCAAUAUUACGUCUA | -0.567 ± 0.074 | -0.586 ± 0.073
CUAGAGCAAUAUUACGACUC |  | -1.39 ± 0.48
GAACAGCAAUAUUACGAAUA | -1.48 ± 0.098 | -0.755 ± 0.11
CCUAAGCAAUAUUACGCGCG | -3.42 ± 0.39 | -1.9 ± 0.25
UUGUAGCAAUAUUACGUUAC |  | -1.65 ± 0.43
UGCUAGCAAUAUUACGCAUU | -3.79 ± 0.39 | -1.85 ± 0.34
UGUAAGCAAUAUUACGUGAC | -3.47 ± 0.33 | -1.77 ± 0.23

Sequence | self-splicing fitness (ln) (30 °C) | self-splicing fitness (ln) (37 °C)
CAAGAGCAAUAUUACGAACA |  | -2.49 ± 0.33
CUUUAGCAAUAUUACGGGAU | -3.8 ± 0.22 | -2.67 ± 0.19
AGCGAGCAAUAUUACGGAAG | -4.34 ± 0.42 | -2.68 ± 0.29
GUUUAGCAAUAUUACGUUCG | -1.61 ± 0.13 | -0.589 ± 0.14
UCAAAGCAAUAUUACGGAUG | -2.78 ± 0.08 | -1.32 ± 0.086
CUCGAGCAAUAUUACGCUGG | -4.31 ± 0.24 | -3.22 ± 0.22
GAUAAGCAAUAUUACGCAUU | -2.5 ± 0.32 | -2.26 ± 0.35
CGUGAGCAAUAUUACGCAUU | -4.1 ± 0.47 | -2.15 ± 0.19
AAUGAGCAAUAUUACGGUUA | -3.02 ± 0.22 | -1.86 ± 0.15
AAGAAGCAAUAUUACGGAUG | -1.8 ± 0.076 | -2.03 ± 0.12
CUCGAGCAAUAUUACGUGAA | -2.47 ± 0.21 | -2.93 ± 0.47
GCUGAGCAAUAUUACGUCCG | -2.38 ± 0.23 | -2.3 ± 0.31
UGUUAGCAAUAUUACGACGA | -0.147 ± 0.12 | 0.253 ± 0.15
AUUGAGCAAUAUUACGCAUU | -2.64 ± 0.23 | -1.49 ± 0.18
UGCUAGCAAUAUUACGUCUC | -3.59 ± 0.16 | -2.91 ± 0.2
CUCGAGCAAUAUUACGCCUC | -1.8 ± 0.21 | 
GAGCAGCAAUAUUACGGACC | -0.847 ± 0.11 | -0.206 ± 0.16
AAUUAGCAAUAUUACGUACA | -0.782 ± 0.086 | -0.498 ± 0.096
ACGGAGCAAUAUUACGGAUU | -3.94 ± 0.31 | -0.896 ± 0.16
GUUGAGCAAUAUUACGUGAU | -2.14 ± 0.19 | -1.6 ± 0.27
GCUAAGCAAUAUUACGUUCU | -1.04 ± 0.052 | -0.467 ± 0.066
UGGAAGCAAUAUUACGGGUU | -2.85 ± 0.18 | -2.38 ± 0.41
CGACAGCAAUAUUACGUACC | -0.817 ± 0.12 | -0.217 ± 0.19
UGCGAGCAAUAUUACGACUU | -2.13 ± 0.43 | -1.7 ± 0.41
GGGUAGCAAUAUUACGUUAC |  | -4.17 ± 0.46

Sequence | self-splicing fitness (ln) (30 °C) | self-splicing fitness (ln) (37 °C)
CACCAGCAAUAUUACGUAGA | -1.46 ± 0.052 | -0.916 ± 0.064
GCGGAGCAAUAUUACGCCCU | -2.95 ± 0.45 | 
GCGGAGCAAUAUUACGCGCG | -2.77 ± 0.34 | -2.83 ± 0.27
GAUCAGCAAUAUUACGUGUG | -0.908 ± 0.044 | -0.101 ± 0.06
AAGAAGCAAUAUUACGAUUC | -1.49 ± 0.1 | -0.941 ± 0.14
GCACAGCAAUAUUACGCUUG | -2.89 ± 0.12 | -1.39 ± 0.11
GCGGAGCAAUAUUACGUACU | -1.85 ± 0.21 | -1.46 ± 0.22
UGCGAGCAAUAUUACGUGGU | -3.4 ± 0.18 | -2.63 ± 0.21
UCACAGCAAUAUUACGAUCC | -3.08 ± 0.2 | -2.03 ± 0.22
AUAAAGCAAUAUUACGGUGC | -1.95 ± 0.1 | -0.743 ± 0.13
UGGAAGCAAUAUUACGUAAG | -1.07 ± 0.12 | -0.81 ± 0.13
CGAAAGCAAUAUUACGUUCU | -0.581 ± 0.075 | 0.092 ± 0.1
UAGUAGCAAUAUUACGGGCA | -1.17 ± 0.16 | -0.536 ± 0.15
CGUCAGCAAUAUUACGGACU | -0.14 ± 0.09 | 0.0847 ± 0.089
ACUUAGCAAUAUUACGGUGU | -2.79 ± 0.11 | -1.64 ± 0.097
UCCAAGCAAUAUUACGGUAA | -0.334 ± 0.067 | 0.257 ± 0.076
CUUAAGCAAUAUUACGUAAA | -3.93 ± 0.27 | -2.88 ± 0.36
CCUUAGCAAUAUUACGAGUU | -3.96 ± 0.27 | -2.56 ± 0.21
ACCAAGCAAUAUUACGACGG | -0.86 ± 0.08 | 0.495 ± 0.1
GCCAAGCAAUAUUACGUUGU | -1.79 ± 0.064 | -0.73 ± 0.072
CGUAAGCAAUAUUACGAUAU | -2.95 ± 0.14 | -2.77 ± 0.2
CCCAAGCAAUAUUACGAUUA | -2.97 ± 0.19 | -2.9 ± 0.27
GCGCAGCAAUAUUACGAACA | -1.64 ± 0.12 | -1.32 ± 0.097
